Source: paper PMC4839733

Target: SP-VSVG-hGLP-1RΔN23-GFP V36A (human) (UniProt P43220)
Chain of UniProt P43220 (P43220 24-463 V36A): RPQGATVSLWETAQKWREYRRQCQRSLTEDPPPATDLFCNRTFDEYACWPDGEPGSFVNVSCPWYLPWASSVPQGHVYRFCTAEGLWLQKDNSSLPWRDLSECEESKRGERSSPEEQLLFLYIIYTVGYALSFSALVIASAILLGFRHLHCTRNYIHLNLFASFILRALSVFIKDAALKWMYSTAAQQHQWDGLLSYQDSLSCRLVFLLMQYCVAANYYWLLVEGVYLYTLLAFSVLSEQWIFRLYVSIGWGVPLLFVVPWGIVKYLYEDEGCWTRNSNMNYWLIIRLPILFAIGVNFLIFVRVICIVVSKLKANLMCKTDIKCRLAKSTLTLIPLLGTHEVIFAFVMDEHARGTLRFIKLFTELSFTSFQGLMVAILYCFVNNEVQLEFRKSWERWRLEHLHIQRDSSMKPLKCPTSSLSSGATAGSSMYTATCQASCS

**Q.** GLP-1 7–37 (liraglutide) (peptide) was tested. Which agonist induced internalisation of hGLP-1R V36A (cell-surface ELISA with the anti-GLP-1R antibody, HEK293 cells) did it give?
**A.** 12.4%
